Laboratory results from paper PMC2888265.
Where two headings read alike, the source gives them in different places.

Columns and labels:
Experiment in all cases: crystal structure
[1] = biological target: Teg12 (uncultured bacterium (DNA extracted directly from desert soil))
[2] = biological target: Teg12 (uncultured bacterium (DNA extracted directly from desert soil)); remark: listed apart in the source
[3] = biological target: Teg12 (uncultured bacterium (DNA extracted directly from desert soil)); remark: listed apart in the source

Measured: stoichiometry N

Teg12 (enzyme)
2: all assays above
